Our source for the Kd values is PMC3005221 (Biochemistry, 2010).

What all share (experiment): fluorescence polarisation
Test [1] concerns the target (His)6-tagged Ubp-M BUZ domain (UniProt Q9Y5T5 22-143).
Target sequence in this assay (Q9Y5T5 22-143): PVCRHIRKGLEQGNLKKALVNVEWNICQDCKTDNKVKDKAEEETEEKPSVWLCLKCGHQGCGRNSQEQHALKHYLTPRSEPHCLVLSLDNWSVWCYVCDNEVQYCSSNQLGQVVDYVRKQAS
Test [2] shares this target. This is another data set of the same source.
Target sequence in this assay (Q9Y5T5 whole entry, looked up, the tested form may be a part): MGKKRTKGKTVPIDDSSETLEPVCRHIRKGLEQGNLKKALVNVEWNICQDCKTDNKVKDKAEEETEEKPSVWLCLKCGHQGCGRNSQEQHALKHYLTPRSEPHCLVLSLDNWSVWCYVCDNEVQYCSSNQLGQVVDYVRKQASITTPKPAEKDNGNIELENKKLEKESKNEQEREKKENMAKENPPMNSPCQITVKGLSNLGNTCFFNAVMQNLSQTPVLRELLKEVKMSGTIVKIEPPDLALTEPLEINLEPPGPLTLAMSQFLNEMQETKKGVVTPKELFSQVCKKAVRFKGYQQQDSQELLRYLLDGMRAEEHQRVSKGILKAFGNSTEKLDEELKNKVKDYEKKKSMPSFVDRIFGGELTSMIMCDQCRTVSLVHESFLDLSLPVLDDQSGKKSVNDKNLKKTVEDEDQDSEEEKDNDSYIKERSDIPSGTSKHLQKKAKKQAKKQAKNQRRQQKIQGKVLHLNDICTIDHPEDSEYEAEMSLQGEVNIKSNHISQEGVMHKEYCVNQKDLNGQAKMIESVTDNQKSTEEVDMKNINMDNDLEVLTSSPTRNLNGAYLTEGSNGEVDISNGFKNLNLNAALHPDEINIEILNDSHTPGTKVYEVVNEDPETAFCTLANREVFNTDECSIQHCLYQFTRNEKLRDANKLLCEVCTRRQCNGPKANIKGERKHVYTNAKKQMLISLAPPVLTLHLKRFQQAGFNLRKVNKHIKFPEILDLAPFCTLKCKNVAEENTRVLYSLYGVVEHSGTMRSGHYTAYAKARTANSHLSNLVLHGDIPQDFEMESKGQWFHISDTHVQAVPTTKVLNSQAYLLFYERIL
The target in the next test is GST-HDAC6 BUZ (UniProt Q9UBN7 1059-1215).
Test [3] deals with T1, HDAC6 BUZ domain (without GST tag) (UniProt Q9UBN7 1059-1215).
T1 sequence (looked up): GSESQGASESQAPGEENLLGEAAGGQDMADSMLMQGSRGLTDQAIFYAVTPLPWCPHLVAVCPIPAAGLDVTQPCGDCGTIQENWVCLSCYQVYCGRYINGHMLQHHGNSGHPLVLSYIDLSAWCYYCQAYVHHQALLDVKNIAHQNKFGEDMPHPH

[ ]: non-standard residue; d: D form. The star is where a group is joined. FITC = O=C1OC2(c3ccc(O)cc3Oc3cc(O)ccc32)c2ccc(NC(=S)*)cc21; Abu = CC[C@H](N)C(=O)O; βAla = NCCC(=O)O

B1: FITC-β-Ala-β-Ala-RGMGG (peptide)
peptide: {FITC-βAla-βAla}-RGMGG-OH
SMILES: CSCC[C@H](NC(=O)CNC(=O)[C@H](CCCNC(=N)N)NC(=O)CCNC(=O)CCNC(=S)Nc1ccc2c(c1)C(=O)OC21c2ccc(O)cc2Oc2cc(O)ccc21)C(=O)NCC(=O)NCC(=O)O
B1 registered a Kd in test [1] of 17 ± 3 µM.

B2: FITC-β-Ala-β-Ala-YUIGG (peptide)
chain: {FITC-βAla-βAla}-Y[Abu]IGG-OH
SMILES: CC[C@H](NC(=O)[C@H](Cc1ccc(O)cc1)NC(=O)CCNC(=O)CCNC(=S)Nc1ccc2c(c1)C(=O)OC21c2ccc(O)cc2Oc2cc(O)ccc21)C(=O)N[C@H](C(=O)NCC(=O)NCC(=O)O)[C@@H](C)CC
In the case of B2, the Kd turned out to be 12 ± 2 µM in test [2] and 1.3 ± 0.1 µM in the test with GST-HDAC6 BUZ.

B3: FITC-β-Ala-β-Ala-NALGG (peptide)
peptide: {FITC-βAla-βAla}-NALGG-OH
SMILES: CC(C)C[C@H](NC(=O)[C@H](C)NC(=O)[C@H](CC(N)=O)NC(=O)CCNC(=O)CCNC(=S)Nc1ccc2c(c1)C(=O)OC21c2ccc(O)cc2Oc2cc(O)ccc21)C(=O)NCC(=O)NCC(=O)O
As for B3, the figures for the equilibrium dissociation constant (Kd) in test [3] and in test [1] were 0.23 ± 0.02 µM and 33 ± 7 µM, respectively.

B4: FITC-β-Ala-β-Ala-IAKGG (peptide)
peptide: {FITC-βAla-βAla}-IAKGG-OH
SMILES: CC[C@H](C)[C@H](NC(=O)CCNC(=O)CCNC(=S)Nc1ccc2c(c1)C(=O)OC21c2ccc(O)cc2Oc2cc(O)ccc21)C(=O)N[C@@H](C)C(=O)N[C@@H](CCCCN)C(=O)NCC(=O)NCC(=O)O
In test [1], B4 yielded a Kd of 12 ± 3 µM.

B5: FITC-β-Ala-β-Ala-LQDGF (peptide)
peptide: {FITC-βAla-βAla}-LQDGF-OH
SMILES: CC(C)C[C@H](NC(=O)CCNC(=O)CCNC(=S)Nc1ccc2c(c1)C(=O)OC21c2ccc(O)cc2Oc2cc(O)ccc21)C(=O)N[C@@H](CCC(N)=O)C(=O)N[C@@H](CC(=O)O)C(=O)NCC(=O)N[C@@H](Cc1ccccc1)C(=O)O
Turning to B5, the Kd in test [1] was > 150 µM.

B6: FITC-β-Ala-β-Ala-YGFGG (peptide)
peptide: {FITC-βAla-βAla}-YGFGG-OH
SMILES: O=C(O)CNC(=O)CNC(=O)[C@H](Cc1ccccc1)NC(=O)CNC(=O)[C@H](Cc1ccc(O)cc1)NC(=O)CCNC(=O)CCNC(=S)Nc1ccc2c(c1)C(=O)OC21c2ccc(O)cc2Oc2cc(O)ccc21
On to B6, for which, in test [1], the Kd came out at 13 ± 3 µM.
